Results published in patent US20240165163A1.

Molecular target: human CD19 (human) (UniProt P15391)
Test: cell-based or functional assay

UniProt P15391, sequence (P15391 20-556): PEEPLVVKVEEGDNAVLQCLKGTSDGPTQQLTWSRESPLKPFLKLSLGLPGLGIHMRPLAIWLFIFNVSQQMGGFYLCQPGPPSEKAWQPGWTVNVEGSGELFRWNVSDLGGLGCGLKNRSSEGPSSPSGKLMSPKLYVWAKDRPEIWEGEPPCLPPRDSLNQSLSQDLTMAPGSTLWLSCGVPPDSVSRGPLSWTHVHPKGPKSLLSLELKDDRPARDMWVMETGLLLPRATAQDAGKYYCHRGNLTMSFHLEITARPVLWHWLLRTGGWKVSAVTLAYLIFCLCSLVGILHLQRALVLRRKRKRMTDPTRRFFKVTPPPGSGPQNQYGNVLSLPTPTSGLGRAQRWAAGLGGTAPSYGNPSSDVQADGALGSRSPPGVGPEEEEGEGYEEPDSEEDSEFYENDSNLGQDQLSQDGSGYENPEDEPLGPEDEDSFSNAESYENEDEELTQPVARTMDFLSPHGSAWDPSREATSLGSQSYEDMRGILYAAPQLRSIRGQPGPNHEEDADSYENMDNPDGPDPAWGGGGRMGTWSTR

antiCD19scFv-CD8Hinge2-Notch1TMD-Notch2STS-truncCD28delTPRRP-CD3z-Gal4VP64 (receptor)
Circuit Expression (inducible BFP reporter): > 80%
